Results taken from the MegaScale stability set (Tsuboyama et al. 2023).

B1: 2K2A (parent)
chain: ELREAFRLYDKEGNGYISTDVMREILAELDETLSSEDLDAMIDEIDADGSGTVDFEEFMGVMT

Variants of: B1
Experiment: folding stability dG (cDNA display proteolysis); higher = more stable
Details: PBS, room temperature

Variant | folding stability dG [kcal/mol]
ELREAFRLYDKEGNGYISTDVMREILAELDETLSSEDLDAMIDKIDADGSGTVDFEEFMGVMT | 2.14
ELREAFRLYDKEGNGYISTDVMREILAELDETLSSEDLDAMIDLIDADGSGTVDFEEFMGVMT | 2.19
ELREAFRLYDKEGNGYISTDVMREILAELDETLSSEDLDAMIDTIDADGSGTVDFEEFMGVMT | 1.93
ELREAFRLYDKEGNGYISTDVMREILAELDETLSSEDLDAMIDFIDADGSGTVDFEEFMGVMT | 2.17
ELREAFRLYDKEGNGYISTDVMREILAELDETLSSEDLDAMIDMIDADGSGTVDFEEFMGVMT | 2.14
ELREAFRLYDKEGNGYISTDVMREILAELDETLSSEDLDAMIDNIDADGSGTVDFEEFMGVMT | 1.95
ELREAFRLYDKEGNGYISTDVMREILAELDETLSSEDLDAMIDWIDADGSGTVDFEEFMGVMT | 2.19
ELREAFRLYDKEGNGYISTDVMREILAELDETLSSEDLDAMIDVIDADGSGTVDFEEFMGVMT | 2.01
ELREAFRLYDKEGNGYISTDVMREILAELDETLSSEDLDAMIDQIDADGSGTVDFEEFMGVMT | 2.06
ELREAFRLYDKEGNGYISTDVMREILAELDETLSSEDLDAMIDRIDADGSGTVDFEEFMGVMT | 2.16
ELREAFRLYDKEGNGYISTDVMREILAELDETLSSEDLDAMIDGIDADGSGTVDFEEFMGVMT | 1.85
ELREAFRLYDKEGNGYISTDVMREILAELDETLSSEDLDAMIDPIDADGSGTVDFEEFMGVMT | 0.7
ELREAFRLYDKEGNGYISTDVMREILAELDETLSSEDLDAMIDHIDADGSGTVDFEEFMGVMT | 2.06
ELREAFRLYDKEGNGYISTDVMREILAELDETLSSEDLDAMIDAIDADGSGTVDFEEFMGVMT | 2.12
ELREAFRLYDKEGNGYISTDVMREILAELDETLSSEDLDAMIDYIDADGSGTVDFEEFMGVMT | 2.02
ELREAFRLYDKEGNGYISTDVMREILAELDETLSSEDLDAMIDSIDADGSGTVDFEEFMGVMT | 2.02
ELREAFRLYDKEGNGYISTDVMREILAELDETLSSEDLDAMIDCIDADGSGTVDFEEFMGVMT | 2.19
ELREAFRLYDKEGNGYISTDVMREILAELDETLSSEDLDAMIDDIDADGSGTVDFEEFMGVMT | 1.76
ELREAFRLYDKEGNGYISTDVMREILAELDETLSSEDLDAMIDIIDADGSGTVDFEEFMGVMT | 2.07
ELREAFRLYDKEGNGYISTDVMREILAELDETLSSEDLDAMQDEIDADGSGTVDFEEFMGVMT | -0.244
ELREAFRLYDKEGNGYISTDVMREILAELDETLSSEDLDAMTDEIDADGSGTVDFEEFMGVMT | 0.392

Variant | folding stability dG [kcal/mol]
ELREAFRLYDKEGNGYISTDVMREILAELDETLSSEDLDAMVDEIDADGSGTVDFEEFMGVMT | 1.34
ELREAFRLYDKEGNGYISTDVMREILAELDETLSSEDLDAMWDEIDADGSGTVDFEEFMGVMT | 0.22
ELREAFRLYDKEGNGYISTDVMREILAELDETLSSEDLDAMYDEIDADGSGTVDFEEFMGVMT | -0.094
ELREAFRLYDKEGNGYISTDVMREILAELDETLSSEDLDAMSDEIDADGSGTVDFEEFMGVMT | -0.099
ELREAFRLYDKEGNGYISTDVMREILAELDETLSSEDLDAMRDEIDADGSGTVDFEEFMGVMT | -0.918
ELREAFRLYDKEGNGYISTDVMREILAELDETLSSEDLDAMIDEIHADGSGTVDFEEFMGVMT | 0.812
ELREAFRLYDKEGNGYISTDVMREILAELDETLSSEDLDAMIDEICADGSGTVDFEEFMGVMT | 0.854
ELREAFRLYDKEGNGYISTDVMREILAELDETLSSEDLDAMIDEIQADGSGTVDFEEFMGVMT | 0.665
ELREAFRLYDKEGNGYISTDVMREILAELDETLSSEDLDAMIDEINADGSGTVDFEEFMGVMT | 1.46
ELREAFRLYDKEGNGYISTDVMREILAELDETLSSEDLDAMIDEIYADGSGTVDFEEFMGVMT | 0.647
ELREAFRLYDKEGNGYISTDVMREILAELDETLSSEDLDAMIDEIPADGSGTVDFEEFMGVMT | -0.155
ELREAFRLYDKEGNGYISTDVMREILAELDETLSSEDLDAMIDEIAADGSGTVDFEEFMGVMT | 0.858
ELREAFRLYDKEGNGYISTDVMREILAELDETLSSEDLDAMIDEITADGSGTVDFEEFMGVMT | 0.826
ELREAFRLYDKEGNGYISTDVMREILAELDETLSSEDLDAMIDEIIADGSGTVDFEEFMGVMT | 0.796
ELREAFRLYDKEGNGYISTDVMREILAELDETLSSEDLDAMIDEIMADGSGTVDFEEFMGVMT | 0.648
ELREAFRLYDKEGNGYISTDVMREILAELDETLSSEDLDAMIDEIFADGSGTVDFEEFMGVMT | 0.726
ELREAFRLYDKEGNGYISTDVMREILAELDETLSSEDLDAMIDEIRADGSGTVDFEEFMGVMT | 0.799
ELREAFRLYDKEGNGYISTDVMREILAELDETLSSEDLDAMIDEIWADGSGTVDFEEFMGVMT | 0.628
ELREAFRLYDKEGNGYISTDVMREILAELDETLSSEDLDAMIDEIKADGSGTVDFEEFMGVMT | 0.845
ELREAFRLYDKEGNGYISTDVMREILAELDETLSSEDLDAMIDEISADGSGTVDFEEFMGVMT | 0.962
ELREAFRLYDKEGNGYISTDVMREILAELDETLSSEDLDAMIDEIVADGSGTVDFEEFMGVMT | 0.984
